Legend:
[1] = biological target: T1, MCL1 (Myeloid Cell Leukemia 1) (UniProt Q07820 1-350, limits assumed); test: in vitro interaction assay with Fortilin deletion mutants
From the text: In vitro pull-down assay. Radiolabeled proteins for use in an in vitro binding assay were generated by a TNT Quick Coupled Transcription/Translation System (Promega, Madison, Wis.) according to the manufacturer's instructions, using [³⁵S]methionine (Amersham-Pharmacia, Piscataway, N.J.) as labeling agent. DNA templates were either circular plasmids or gel-purified PCR products containing a T7 RNA polymerase promoter. The in vitro translated, influenza hemagglutinin-tagged Fortilin (Fortilin-HA) or its mutants and another in vitro translated protein namely, MCL1, Bcl-xL, Bak, Bax or PCNA, were added to Buffer A (50 mM HEPES, pH 7.5, 70 mM KCl, 0.5 mM ATP, 5 mM MgSO₄, 1 mM DTT, 0.001% NP-40, 50 μM MG132, 2 μg/mL BSA, 2 μg/mL aporotinin, 0.5 mM PMSF and protease inhibitor cocktail [Sigma]), and allowed to form complexes at 4° C. for 90 minutes. Fortilin-HA or its mutants were then pulled down with rat anti-HA antibody (Clone 3F10; Roche Molecular Biochemicals, Indianapolis, Ind.) and sheep anti-rat polyclonal antibody conjugated to Dynabeads™ (M480; Dynal USA, Lake Success, N.Y.). Immune complexes were then washed 5 times with Buffer A and once with Buffer B (Buffer A supplemented with 0.01% NP-40). […]

[2] = biological target: T2, Bak (UniProt Q16611 1-211, limits assumed); test: in vitro pull-down with anti-HA antibody and Dynabeads, [35S]-labelled proteins
T2 construct: In vitro translated, [35S]Met-labelled
T2 sequence (looked up): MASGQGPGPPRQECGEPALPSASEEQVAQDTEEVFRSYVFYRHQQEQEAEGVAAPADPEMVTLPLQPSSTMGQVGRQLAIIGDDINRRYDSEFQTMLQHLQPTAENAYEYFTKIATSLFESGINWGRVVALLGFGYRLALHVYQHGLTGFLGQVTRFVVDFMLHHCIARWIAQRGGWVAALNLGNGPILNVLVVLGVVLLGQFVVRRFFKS
From the text: (§1) In vitro pull-down assay. Radiolabeled proteins for use in an in vitro binding assay were generated by a TNT Quick Coupled Transcription/Translation System (Promega, Madison, Wis.) according to the manufacturer's instructions, using [³⁵S]methionine (Amersham-Pharmacia, Piscataway, N.J.) as labeling agent. DNA templates were either circular plasmids or gel-purified PCR products containing a T7 RNA polymerase promoter. The in vitro translated, influenza hemagglutinin-tagged Fortilin (Fortilin-HA) or its mutants and another in vitro translated protein namely, MCL1, Bcl-xL, Bak, Bax or PCNA, were added to Buffer A (50 mM HEPES, pH 7.5, 70 mM KCl, 0.5 mM ATP, 5 mM MgSO₄, 1 mM DTT, 0.001% NP-40, 50 μM MG132, 2 μg/mL BSA, 2 μg/mL aporotinin, 0.5 mM PMSF and protease inhibitor cocktail [Sigma]), and allowed to form complexes at 4° C. for 90 minutes. Fortilin-HA or its mutants were then pulled down with rat anti-HA antibody (Clone 3F10; Roche Molecular Biochemicals, Indianapolis, Ind.) and sheep anti-rat polyclonal antibody conjugated to Dynabeads™ (M480; Dynal USA, Lake Success, N.Y.). Immune complexes were then washed 5 times with Buffer A and once with Buffer B (Buffer A supplemented with 0.01% NP-40). Finally, precipitated proteins were eluted into SDS gel loading buffer (50 mM Tris-Cl, pH 6.8, 100 mM DTT, 2% SDS, 0.1% bromophenol blue, and 10% glycerol), boiled for 5 minutes, subjected to 12% SDS-polyacrylamide gel electrophoresis (SDS-PAGE) and visualized by fluorography and imaging with a phosphoimager system (Bio-Rad, Hercules, Calif.).

[3] = biological target: T3, Bax (UniProt Q07812 1-192, limits assumed); test: as above
T3 construct: In vitro translated, [35S]Met-labelled
T3 sequence (Q07812 whole entry): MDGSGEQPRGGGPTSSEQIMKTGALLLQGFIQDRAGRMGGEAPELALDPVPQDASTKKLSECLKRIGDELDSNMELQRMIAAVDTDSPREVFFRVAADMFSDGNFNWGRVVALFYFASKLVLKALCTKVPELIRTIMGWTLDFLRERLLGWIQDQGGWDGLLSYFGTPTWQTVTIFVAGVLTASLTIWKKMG
From the text: as §1

[4] = biological target: T4, PCNA (UniProt P12004 1-261, limits assumed); test: as above
T4 construct: In vitro translated, [35S]Met-labelled
T4 sequence (P12004 whole entry): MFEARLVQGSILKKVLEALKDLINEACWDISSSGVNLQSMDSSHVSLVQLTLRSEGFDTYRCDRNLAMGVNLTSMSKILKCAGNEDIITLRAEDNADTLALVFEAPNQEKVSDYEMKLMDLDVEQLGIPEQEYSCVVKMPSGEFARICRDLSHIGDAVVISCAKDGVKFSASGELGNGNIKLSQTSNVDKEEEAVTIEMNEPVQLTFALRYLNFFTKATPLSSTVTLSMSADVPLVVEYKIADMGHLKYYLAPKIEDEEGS
From the text: as §1

[5] = biological target: T1, MCL1 (Myeloid Cell Leukemia 1); test: as above
From the text: as §1

T1 sequence (Q07820 whole entry): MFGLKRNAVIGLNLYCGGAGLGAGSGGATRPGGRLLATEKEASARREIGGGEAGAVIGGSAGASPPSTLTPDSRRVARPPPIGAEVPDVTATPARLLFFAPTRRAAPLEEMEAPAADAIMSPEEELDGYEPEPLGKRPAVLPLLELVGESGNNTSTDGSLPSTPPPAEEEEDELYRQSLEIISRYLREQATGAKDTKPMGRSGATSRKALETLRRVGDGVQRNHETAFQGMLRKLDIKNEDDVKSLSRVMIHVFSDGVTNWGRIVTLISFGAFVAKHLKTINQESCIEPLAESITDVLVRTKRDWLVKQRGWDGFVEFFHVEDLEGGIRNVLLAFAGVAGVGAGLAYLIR

B1: HA-tagged Fortilin deletion mutant, amino acids 46-172 (other, not shown: small tags and cut ends)
chain: SLIGGNASAEGPEGEGTESTVITGVDIVMNHHLQETSFTKEAYKKYIKDYMKSIKGKLEEQRPERVKPFMTGAAEQIKHILANFKNYQFFIGENMNPDGMVALLDYREDGVTPYMIFFKDGLEMEKC
notes: Any added start methionine is not described
Does B1 bind [1]?
Result: no binding

B2: influenza hemagglutinin-tagged Fortilin (Fortilin-HA), full-length, amino acids 1-172 (other, not shown: small tags and cut ends)
chain: MIIYRDLISHDEMFSDIYKIREIADGLCLEVEGKMVSRTEGNIDDSLIGGNASAEGPEGEGTESTVITGVDIVMNHHLQETSFTKEAYKKYIKDYMKSIKGKLEEQRPERVKPFMTGAAEQIKHILANFKNYQFFIGENMNPDGMVALLDYREDGVTPYMIFFKDGLEMEKC
notes: also called wild type Fortilin; wild-type fortilin
Which results are given for B2?
binding result [2]: no binding; binding result [3]: no binding; binding result [4]: no binding; binding result [5]: binds

B3: HA-tagged Fortilin deletion mutant, amino acids 5-172 (other, not shown: small tags and cut ends)
chain: RDLISHDEMFSDIYKIREIADGLCLEVEGKMVSRTEGNIDDSLIGGNASAEGPEGEGTESTVITGVDIVMNHHLQETSFTKEAYKKYIKDYMKSIKGKLEEQRPERVKPFMTGAAEQIKHILANFKNYQFFIGENMNPDGMVALLDYREDGVTPYMIFFKDGLEMEKC
notes: as for B1
Does B3 bind [5]?
Result: binds

B4: HA-tagged Fortilin deletion mutant, amino acids 23-172 (other, not shown: small tags and cut ends)
chain: IADGLCLEVEGKMVSRTEGNIDDSLIGGNASAEGPEGEGTESTVITGVDIVMNHHLQETSFTKEAYKKYIKDYMKSIKGKLEEQRPERVKPFMTGAAEQIKHILANFKNYQFFIGENMNPDGMVALLDYREDGVTPYMIFFKDGLEMEKC
notes: as for B1
Does B4 bind [1]?
Result: no binding
